# B1: Solute carrier organic anion transporter family member 1A1 (Rattus norvegicus) (protein)
# chain: MEETEKKIATQEGRLFSKMKVFLLSLTCACLTKSLSGVYMNSMLTQIERQFDISTSVAGLINGSFEIGNLFFIVFVSYFGTKLHRPVVIGIGCVIMGLGCLLMSLPHFFMGRYEYETTISPTGNLSSNSFLCMENRTQTLKPTQDPAECVKEMKSLMWICVMVGNIIRGIGETPIVPLGISYIEDFAKSENSPLYIGILEMGKVAGPIFGLLLGSYCAQIYVDIGSVNTDDLTITPSDTRWVGAWWIGFLVCAGVNILTSIPFFFLPKALPKKGQQENVAVTKDGKVEKYGGQAREENLGITKDFLTFMKRLFCNPIYMLFILTSVLQVNGFINKFTFLPKYLEQQYGKSTAEAIFLIGVYSLPPICLGYLIGGFIMKKFKITVKKAAYLAFCLSVFEYLLFLCHFMLTCDNAAVAGLTTSYKGVQHQLHVESKVLADCNTRCSCSTNTWDPVCGDNGVAYMSACLAGCKKFVGTGTNMVFQDCSCIQSLGNSSAVLGLCKKGPECANRLQYFLILTIIISFIYSLTAIPGYMVFLRCVKSEEKSLGVGLHTFCIRVFAGIPAPVYFGALIDRTCLHWGTLKCGQRGACRMYDINSFRHIYLGLPIALRGSSYLPAFFILILMRKFQFPGDIDSSATDHTEMMLGEKESEHTDVHGSPQVENDGELKTKL
# B2: Hepatic sodium/bile acid cotransporter (Rattus norvegicus) (protein)
# chain: MEVHNVSAPFNFSLPPGFGHRATDKALSIILVLMLLLIMLSLGCTMEFSKIKAHLWKPKGVIVALVAQFGIMPLAAFLLGKIFHLSNIEALAILICGCSPGGNLSNLFTLAMKGDMNLSIVMTTCSSFSALGMMPLLLYVYSKGIYDGDLKDKVPYKGIMISLVIVLIPCTIGIVLKSKRPHYVPYILKGGMIITFLLSVAVTALSVINVGNSIMFVMTPHLLATSSLMPFSGFLMGYILSALFQLNPSCRRTISMETGFQNIQLCSTILNVTFPPEVIGPLFFFPLLYMIFQLAEGLLIIIIFRCYEKIKPPKDQTKITYKAAATEDATPAALEKGTHNGNIPPLQPGPSPNGLNSGQMAN
# Key:
# Format in all cases: functional, cell-based
# [1] = substrate: C[C@H](CCC(=O)O)[C@H]1CC[C@H]2[C@@H]3C[C@H](O)[C@@H]4C[C@H](O)CC[C@]4(C)[C@H]3CC[C@]12C; experiment: (§1) TP_TRANSPORTER: uptake in Oatp1-expressing HeLa cells
# [2] = substrate: C[C@H](CCC(=O)NCCS(=O)(=O)O)[C@H]1CC[C@H]2[C@@H]3CC[C@@H]4C[C@H](O)CC[C@]4(C)[C@H]3C[C@H](O)[C@]12C; experiment: as §1
# [3] = substrate: C[C@H](CCC(=O)NCCS(=O)(=O)O)C1CC[C@H]2[C@@H]3C[C@H](O)[C@@H]4C[C@H](O)CC[C@]4(C)[C@H]3CC[C@]12C; experiment: as §1
# [4] = substrate: O=C1OC(c2ccc(O)c(S(=O)(=O)O)c2)(c2ccc(O)c(S(=O)(=O)O)c2)c2c(Br)c(Br)c(Br)c(Br)c21; experiment: (§2) TP_TRANSPORTER: uptake in NTCP-expressing HeLa cells
# [5] = substrate: C[C@H](CCC(=O)NCCS(=O)(=O)O)[C@H]1CC[C@H]2[C@@H]3CC[C@@H]4C[C@H](O)CC[C@]4(C)[C@H]3C[C@H](O)[C@]12C; experiment: as §2
# [6] = substrate: C[C@H](CCC(=O)NCCS(=O)(=O)O)C1CC[C@H]2[C@@H]3C[C@H](O)[C@@H]4C[C@H](O)CC[C@]4(C)[C@H]3CC[C@]12C; experiment: as §2
Protein,Km [1] [µM],Km [2] [µM],Km [3] [µM],Km [4] [µM],Km [5] [µM],Km [6] [µM]
B1,17.5,3.5,3.3,–,–,–
B2,–,–,–,3.7,7.4,6.8
